# Data as given in PMC2805019 (ACS chemical biology, 2008).
# B1: randomized 30 bp dsDNA, biotinylated (dsDNA)
# DNA 1: CCGGTACGATACGACGATCGATAGTAGGCC
# DNA 2: GGCCTACTATCGATCGTCGTATCGTACCGG
# B2: MazEF promoter DNA, biotinylated (dsDNA)
# DNA 1: GCTCGTATCTACAATGTAGATTGATATATACTGTATCTACATATGATAGC
# DNA 2: GCTATCATATGTAGATACAGTATATATCAATCTACATTGTAGATACGAGC
# B3: MazEF promoter DNA, nonbiotinylated (dsDNA)
# DNA 1: B2 DNA 1
# DNA 2: B2 DNA 2
# B4: randomized 30 bp dsDNA, nonbiotinylated (dsDNA)
# DNA 1: B1 DNA 1
# DNA 2: B1 DNA 2
# B5: alternating GC control DNA, biotinylated (dsDNA)
# DNA 1: GCGCGCGCGCGCGCGCGCGCGCGCGCGCGCGCGCGCGCGCGCGCGCGCGC
# DNA 2: CGCGCGCGCGCGCGCGCGCGCGCGCGCGCGCGCGCGCGCGCGCGCGCGCG
# Assays:
# [1] = molecular target: apoptosis inducing factor (AIF) (Homo sapiens, UniProt O95831); test: ITC; format: binding
# Chain of apoptosis inducing factor (AIF) (O95831 122-613): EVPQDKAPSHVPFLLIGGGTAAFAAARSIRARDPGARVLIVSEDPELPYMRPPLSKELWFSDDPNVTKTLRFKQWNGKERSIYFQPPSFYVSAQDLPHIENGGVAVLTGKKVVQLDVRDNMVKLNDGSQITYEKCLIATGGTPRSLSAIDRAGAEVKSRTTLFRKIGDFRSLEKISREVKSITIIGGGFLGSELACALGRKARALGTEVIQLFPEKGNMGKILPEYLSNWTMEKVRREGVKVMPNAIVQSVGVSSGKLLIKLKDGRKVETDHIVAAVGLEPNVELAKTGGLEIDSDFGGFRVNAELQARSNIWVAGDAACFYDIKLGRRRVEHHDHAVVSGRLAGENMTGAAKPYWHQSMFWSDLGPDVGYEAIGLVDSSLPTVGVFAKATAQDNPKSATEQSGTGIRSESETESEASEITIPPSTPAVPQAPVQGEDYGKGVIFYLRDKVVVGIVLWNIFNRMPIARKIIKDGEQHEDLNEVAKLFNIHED
# [2] = molecular target: T1, AIF (57 kDa form, AIFΔ1-121) (human, UniProt O95831 122-613); test: photonic crystal biosensor
# T1 sequence (O95831 122-613, stated change not applied): as the sequence (O95831 122-613) above
# [3] = molecular target: T2, MazEF toxin-antitoxin complex (UniProt P0AE72;P0AE70 1-82;1-111); test: photonic crystal biosensor
# T2 sequence (P0AE72 whole entry, chain 1 of 2): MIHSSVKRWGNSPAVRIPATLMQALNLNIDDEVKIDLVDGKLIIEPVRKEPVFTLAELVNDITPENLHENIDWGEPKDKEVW
# T2 sequence (P0AE70 whole entry, chain 2 of 2): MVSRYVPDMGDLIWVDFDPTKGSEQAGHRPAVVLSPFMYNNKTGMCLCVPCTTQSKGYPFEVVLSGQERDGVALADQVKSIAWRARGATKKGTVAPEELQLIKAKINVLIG
# [4] = molecular target: T2, MazEF toxin-antitoxin complex; test: competition
# [5] = molecular target: T1, AIF (57 kDa form, AIFΔ1-121); test: competition
# [6] = molecular target: T2, MazEF toxin-antitoxin complex; test: photonic crystal biosensor; remark: listed apart in the source
molecule,measurement,setting,value
"O=C(O)C1=CC(=C(c2ccc(O)c(C(=O)O)c2)c2ccc(O)c(C(=O)O)c2)C=CC1=O [ATA, aurin tricarboxylic acid]",Kd,[1],19 ± 5 µM
B1,binding result,[2],binds
B2,binding result,[3],binds
B3,binding result,[4],binds
B4,binding result,[5],binds
B5,binding result,[6],no binding
